B1: chimeric mik-β1 antibody (antibody, V domains shown)
VH: QVQLKQSGPGLVQPSQSLSITCTVSGFSVTSYGVHWIRQSPGKGLEWLGVIWSGGSTDYNAAFISRLTISKDNSKSQVFFKVNSLQPADTAIYYCARAGDYNYDGFAYWGQGTLVTVSA
VL: QIVLTQSPAIMSASPGEKVTMTCSGSSSVSFMYWYQQRPGSSPRLLIYDTSNLASGVPVRFSGSGSGTSYSLTISRMEAEDAATYYCQQWSTYPLTFGAGTKLELK
B2: humanized mik-β1 antibody (antibody, V domains shown)
VH: EVQLLESGGGLVQPGGSLRLSCAASGFTVTSYGVHWVRQAPGKGLEWVGVIWSGGSTDYNAAFISRFTISRDNSKNTLYLQMNSLQAEDTAIYYCARAGDYNYDGFAYWGQGTLVTVSS
VL: DIQMTQSPSSLSASVGDRVTITCSGSSSVSFMYWYQQKPGKAPKLLIYDTSNLASGVPSRFSGSGSGTDYTFTISSLQPEDIATYYCQQWSTYPLTFGQGTKVEVK

Tests used:
[1] = biological target: T1, p75 chain of the human IL-2 receptor on YTJB cells (human, UniProt P14784 27-551); experiment: flow cytometry on YTJB cells
T1 construct: whole, on cells; also called p75 protein; p75 antigen
T1 sequence (looked up): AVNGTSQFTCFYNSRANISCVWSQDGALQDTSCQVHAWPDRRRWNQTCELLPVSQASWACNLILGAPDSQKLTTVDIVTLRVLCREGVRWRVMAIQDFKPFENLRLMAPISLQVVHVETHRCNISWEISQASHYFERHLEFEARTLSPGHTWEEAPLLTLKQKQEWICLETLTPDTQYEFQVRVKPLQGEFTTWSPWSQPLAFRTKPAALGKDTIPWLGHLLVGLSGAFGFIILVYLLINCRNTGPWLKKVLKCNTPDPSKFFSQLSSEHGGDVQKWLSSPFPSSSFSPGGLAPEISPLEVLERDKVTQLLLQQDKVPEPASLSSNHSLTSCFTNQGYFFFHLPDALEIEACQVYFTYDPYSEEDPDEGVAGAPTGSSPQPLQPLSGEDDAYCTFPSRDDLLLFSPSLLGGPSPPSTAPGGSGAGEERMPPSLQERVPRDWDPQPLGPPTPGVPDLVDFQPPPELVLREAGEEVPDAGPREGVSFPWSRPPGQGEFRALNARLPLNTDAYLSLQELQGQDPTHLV
Method: Cells were suspended in FACS buffer (PBS+2% BSA+0.1% azide) at approximately 5×10⁶/ml. 100 ul of cell suspension was transferred to a polystyrene tube and incubated with 100 ng of purified antibody on ice for 30 min. The cells were washed with FACS buffer and incubated with goat anti-human Ig antibody on ice for another 30 min. Then the cells were washed and incubated with FITC labeled rabbit anti-goat Ig antibody for 30 min. The cells were washed again and finally resuspended in PBS+1% paraformaldehyde. Cells were analyzed on a FACSmate (Becton Dickinson).

[2] = biological target: T1, p75 chain of the human IL-2 receptor on …; experiment: competition with radio-iodinated mouse mik-β1 on YTJB cells, Berzofsky calculation
Method: After incubation for 2 hr at 0° C. the cells were washed twice with binding buffer without mouse Ig and collected by centrifugation. The radioactivity bound to cells was measured and expressed as the ratio of bound/free cpm.

Row | Binder | binding result [1] | fold difference of binding affinity against the mouse mik-β1 antibody [2]
1 | B1 | binds | 
2 | B2 |  | ≤ 2 fold

— US20080160018A1 (PDL BIOPHARMA, published 2008)
